Measured values published in US20250277196A1, “EPSPS MUTANTS AND METHOD OF ITS USES” (CROPEDIT BIOTECHNOLOGY INC., priority 2021, published 2025).

Columns and labels:
Type in all cases: cell-based
E. coli lacking EPSPS [1] = assay: Resistance test of flax EPSPS V403A mutant and comparison with wild type (FIG. 4); settings: presence of 1 mM and 2 mM glyphosate
Experimental: The flax (Linum usitatissimum) EPSPS mutant sequence(SEQ ID NO: 27) was synthesized and cloned into the pKED2 vector to obtain the vector LuVA. The vector LuWt was created after introducing A403V mutation by PCR.
(§1) a) PCR system: According to the primer and template mixed PCR system corresponding to the target vector in the above table, the forward primer was 1.25 μl, the reverse primer was 1.25 μl, the template plasmid was 2 μl, the Q5 PCR master mix was 12.5 μl, and ddH2O was […].
(§2) b) PCR reaction conditions were as follows: the annealing temperature was set according to the annealing temperature corresponding to the target carrier in the above table.
(§3) c) Took out 5 μl of the obtained PCR product and added it to the loading buffer for agarose gel electrophoresis. A band with a size of about 4.5 kb was considered successful.
(§4) d) Used NEB's KLD enzyme mixture to remove the template and then connected the PCR product. The connection system was 5 μl KLD buffer, 1 μl KLD MIX, 1 μl PCR product, and ddH2O 3 μl. After ligating at room temperature for 5 min, transformed it into E. coli.
e) The ligation product was transformed into Dh5a competent E. coli lacking EPSPS. After resuscitation, the cells were washed twice with M9 medium, and then the washed cells were spread on M9 medium and cultured for 48 h. […]

E. coli lacking EPSPS [2] = assay: Resistance test of soybean EPSPS mutant and comparison with wild type (FIG. 4); settings: 0.5 mM glyphosate
Excerpt: According to the wild-type sequence information of soybean (Glycine max) EPSPS (SEQ ID NO:36), the gene was synthesized and inserted into the vector pKED2 to obtain the vector GmWt. The V403 site of GmWt was mutated to A by PCR, and the vector GmVA expressing the soybean EPSPS mutant protein containing the V403A mutation was obtained. The specific experimental steps were as following:
as §1, §2, §3
(§5) d) Used NEB's KLD enzyme mixture to remove the template and connected the PCR product. The connection system was 5 μl KLD buffer, 1 μl KLD MIX, 1 μl PCR product, and ddH2O 3 μl. After ligating at room temperature for 5 min, transformed it into E. coli.
(§6) e) The ligation product was transformed into Dh5a competent E. coli lacking EPSPS. […]

E. coli lacking EPSPS [3] = assay: Resistance test of wheat EPSPS mutant and comparison with wild type (FIG. 4); settings: 0.2 mM glyphosate
Excerpt: The gene was synthesized according to the V403A mutant sequence information (SEQ ID NO:32) of the EPSPS gene on chromosome 7 of the wheat A genome and inserted into the vector pKED2 to obtain the wheat (Triticum vulgare) EPSPS mutant expression vector TaVA containing the V403A mutation. The A403 site of TaVA was mutated back to V by PCR, and a TaWt vector expressing the EPSPS wild-type gene on chromosome 7 of wheat A genome was obtained.
as §1, §2, §3, §4, §6

E. coli lacking EPSPS [4] = assay: Resistance identification of flax EPSPS mutants LuGPV, LuTIPT, LuTIPTVA (FIG. 5, FIG. 6)
Excerpt: The G172 position and P177 position of LuVA were mutated into A and S at the same time by PCR, and a 3-point mutant LuGPV was obtained.
The T173 and P177 positions of LuWT were simultaneously mutated to I and T by PCR, and a […] mutant LuTIPT was obtained.
The T173 and P177 positions of LuVA were simultaneously mutated to I and T by PCR, and a 3-point mutant LuTIPTVA was obtained.
as §1, §2, §3, §5
e) The ligation product was transformed into Dh5a competent E. coli lacking EPSPS. After resuscitation, the cells were washed twice with M9 medium, and then the washed cells were spread on M9 medium and cultured for 48 h. Sequenced the grown single colony (Tsingke Biological Technology Co., Ltd.), and selected the correct mutant to save for future use.
The resistance results were shown in FIG. 5: LuWt(SEQ ID NO:26) represents the EPSPS2 gene of flax, LuGPV (SEQ ID NO:30) represents the flax G172A+P177S+V403A three-point mutant. The resistance results were shown in FIG. 6: LuTIPT (SEQ ID NO:28) was the flax T173I+[…] double-point mutants, LuTIPTVA (SEQ ID NO:29) was flax T173I+P177T+V403A three-point mutants.

B1: LuVA (protein)
DNA: MTVPEEIVLQPIKDISGIVTLPGSKSLSNRILLLAALSEGKTVVDNLLNSDDVHYMLGALKTLGLNVEHSSEQKRAIVEGRGGVFPVGKLGKNDIELFLGNAGTAMRPLTAAVTAAGGNSSYILDGVPRMRERPIGDLVVGLKQLGADVSCSSTSCPPVHVNAKGGLPGGKVKLSGSISSQYLTALLMAAPLALGDVEIEIVDKLISVPYVDMTLKLMERFGVAVEHSGSWDRFFVKGGQKYKSPGNAYVEGDASSASYFLAGAAITGGTITVEGCGTSSLQGDVKFAEVLEKMGAKVTWTETSVTVTGPPRDASGKKHLRAVDVNMNKMPDAAMTLAVVALYADGPTAIRDVASWRVKETERMIAVCTELRKLGATVEEGPDYCIITPPEKLSIAEIDTYDDHRMAMAFSLAACADVPVTIRDPGCTKKTFPDYFEVLERYTKH
modifications: This sequence is synthesized in lab.
growth status compared with LuWt (E. coli lacking EPSPS [1]): significantly better than that of LuWt

B2: GmVA (protein)
DNA: MAAAEKPSTAPEIVLEPIKDISGTITLPGSKSLSNRILLLAALSEGTTVVDNLLYSEDIHYMLGALRTLGLRVEDDQTTKQAIVEGCGGLFPTIKESKDEINLFLGNAGTAMRPLTAAVVAAGGNASYVLDGVPRMRERPIGDLVAGLKQLGADVDCFLGTNCPPVRVNGKGGLPGGKVKLSGSISSQYLTALLMAAPLALGDVEIEIVDKLISVPYVEMTLKLMERFGVSVEHSGNWDKFLVHGGQKYKSPGNAFVEGDASSASYFLAGAAVTGGTITVNGCGTNSLQGDVKFAEVLEKMGAKVTWSENSVTVTGPPQDSSGQKVLQGIDVNMNKMPDAAMTLAVVALFANGQTAIRDVASWRVKETERMIAICTELRKLGATVEEGPDYCVITPPEKLNVTAIDTYDDHRMAMAFSLAACGDVPVTIKDPGCTRKTFPDYFEVLERFTRH
modifications: This sequence is synthesized in lab.
growth status compared with GmWt (E. coli lacking EPSPS [2]): significantly higher than that of GmWt

B3: TaVA (protein)
DNA: MAGAEEVVLQPIREISGAVQLPGSKSLSNRILLLSALSEGTTVVDNLLNSEDVHYMLEALEALGLSVEADKVAKRAVVVGCGGRFPVEKDAKEEVKLFLGNAGTAMRPLTAAVVAAGGNATYVLDGVPRMRERPIGDLVVGLQQLGADVDCFLGTNCPPVRINGKGGLPGGKVKLSGSISSQYLSSLLMAAPLALEDVEIEIIDKLISVPYVEMTLKLMEHFGVTAEHSDSWDRFYIKGGQKYKSPGNAYVEGDASSASYFLAGAAITGGTVTVEGCGTTSLQGDVKFAEVLEMMGAKVTWTDTSVTVTGPPRQPFGRKHLKAVDVNMNKMPDAAMTLAVVALFADGPTAIRDVASWRVKETERMVAIRTELTKLGATVEEGPDYCIITPPEKLNITAIDTYDDHRMAMAFSLAACAEVPVTIRDPGCTRKTFPNYFDVLSTFVKN
modifications: This sequence is synthesized in lab.
growth state compared with TaWt (E. coli lacking EPSPS [3]): significantly higher than that of TaWt

B4: LuGPV (protein)
DNA: MTVPEEIVLQPIKDISGIVTLPGSKSLSNRILLLAALSEGKTVVDNLLNSDDVHYMLGALKTLGLNVEHSSEQKRAIVEGRGGVFPVGKLGKNDIELFLGNAATAMRSLTAAVTAAGGNSSYILDGVPRMRERPIGDLVVGLKQLGADVSCSSTSCPPVHVNAKGGLPGGKVKLSGSISSQYLTALLMAAPLALGDVEIEIVDKLISVPYVDMTLKLMERFGVAVEHSGSWDRFFVKGGQKYKSPGNAYVEGDASSASYFLAGAAITGGTITVEGCGTSSLQGDVKFAEVLEKMGAKVTWTETSVTVTGPPRDASGKKHLRAVDVNMNKMPDAAMTLAVVALYADGPTAIRDVASWRVKETERMIAVCTELRKLGATVEEGPDYCIITPPEKLSIAEIDTYDDHRMAMAFSLAACADVPVTIRDPGCTKKTFPDYFEVLERYTKH
modifications: This sequence is synthesized in lab.
resistance compared with CP4 (colony saturation) (E. coli lacking EPSPS [4]; 100 mM glyphosate pressure): higher than CP4
glyphosate resistance (E. coli lacking EPSPS [4]; flax EPSPS mutant in E. coli, FIG. 5): strong glyphosate resistance

B5: LuTIPTVA (protein)
DNA: MTVPEEIVLQPIKDISGIVTLPGSKSLSNRILLLAALSEGKTVVDNLLNSDDVHYMLGALKTLGLNVEHSSEQKRAIVEGRGGVFPVGKLGKNDIELFLGNAGIAMRTLTAAVTAAGGNSSYILDGVPRMRERPIGDLVVGLKQLGADVSCSSTSCPPVHVNAKGGLPGGKVKLSGSISSQYLTALLMAAPLALGDVEIEIVDKLISVPYVDMTLKLMERFGVAVEHSGSWDRFFVKGGQKYKSPGNAYVEGDASSASYFLAGAAITGGTITVEGCGTSSLQGDVKFAEVLEKMGAKVTWTETSVTVTGPPRDASGKKHLRAVDVNMNKMPDAAMTLAVVALYADGPTAIRDVASWRVKETERMIAVCTELRKLGATVEEGPDYCIITPPEKLSIAEIDTYDDHRMAMAFSLAACADVPVTIRDPGCTKKTFPDYFEVLERYTKH
modifications: This sequence is synthesized in lab.
resistance compared with LuTIPT (E. coli lacking EPSPS [4]; FIG. 6): higher than that of LuTIPT
